# Data as given in US20170226158A1 (AstraZeneca / MedImmune, published 2017).
# T1: SUMO-L-Myc fusion protein (recombinant bHLHZip domain of L-Myc fused with a small ubiquitin-like modifier … (UniProt P12524 281-364))
# T1 construct: not shown: small ubiquitin-like modifier (SUMO) protein
# T1 sequence (looked up): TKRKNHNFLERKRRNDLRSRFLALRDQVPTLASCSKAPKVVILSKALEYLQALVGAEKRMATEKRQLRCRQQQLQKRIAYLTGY
# T2: CD73 (UniProt P21589 27-549, limits assumed)
# T2 construct: Target antigen in phage ELISA; construct not described
# T2 sequence (looked up): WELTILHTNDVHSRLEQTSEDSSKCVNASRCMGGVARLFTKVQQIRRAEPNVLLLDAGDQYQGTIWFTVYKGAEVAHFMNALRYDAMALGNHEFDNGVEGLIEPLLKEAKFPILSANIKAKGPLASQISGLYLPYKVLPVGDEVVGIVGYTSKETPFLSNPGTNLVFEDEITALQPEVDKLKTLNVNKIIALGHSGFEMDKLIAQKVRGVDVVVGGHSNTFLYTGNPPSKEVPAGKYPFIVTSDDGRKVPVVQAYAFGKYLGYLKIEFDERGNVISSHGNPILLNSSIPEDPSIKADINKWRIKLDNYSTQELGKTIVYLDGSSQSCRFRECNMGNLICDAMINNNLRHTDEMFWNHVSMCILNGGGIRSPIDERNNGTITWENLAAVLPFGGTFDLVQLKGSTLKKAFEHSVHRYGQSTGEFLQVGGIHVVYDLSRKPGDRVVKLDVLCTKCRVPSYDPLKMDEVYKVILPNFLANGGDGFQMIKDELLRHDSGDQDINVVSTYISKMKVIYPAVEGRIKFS
# Target: T1, SUMO-L-Myc fusion protein (recombinant …)
# Experiment: second phage ELISA on coated antigens
row,Binder,binding result
1,"DARPin 1 (template L-Myc DARPin, net charge -13) (designed binder, also called tDARPin S-13; S-13 tDARPin) DLGKKLLEAARAGQDDEVRILMANGADVNAMDQYGFTPLHLAAWYGHLEIVEVLLKHGADVNAKDVHGFTPLHLAAWTGHLEIVEVLLKNGADVNARDNEGSTPLHLAALAGHLEIVEVLLKNGADVNAQDKFGKTAFDISIDNGNEDLAEILQKL",binds

# Target: T3, KRAS (UniProt P01116-2 1-188, limits assumed)
# T3 construct: Target antigen in phage ELISA; construct not described
# Experiment: phage ELISA on target antigen, signal as % of parental WT
row,Binder,% antigen binding activity retained (relative to parental)
1,"KRAS mut8 (designed binder, Net charge 12; Tested on phage) DLGKKLLEAARAGQNDKVRILMANGAKVNARDHTGFTPLHLAAQHGHRKIVKVLLKNGAKVNAVDWFGRTPLHLAAKMGHLEIVKVLLKHGANVKADDHNGRTPLHLAAWEGHLEIVKVLLKYGAKVNAQDKFGKTAFDISIENGNEKLAKILQKL",> 50%
2,"KRAS mut6 (designed binder, Net charge 10; Tested on phage) DLGKKLLEAARAGQNDKVRILMANGAKVNARDHTGFTPLHLAAQHGHRKIVKVLLKNGADVNAVDWFGRTPLHLAAKMGHLEIVKVLLKHGAKVNADDHNGRTPLHLAAWEGHLEIVKVLLKYGAKVNAQDKFGKTAFDISIENGNEKLAKILQKL",> 50%
3,"KRAS mut7 (designed binder, Net charge 11; Tested on phage) DLGKKLLEAARAGQNDKVRILMANGANVNARDHTGFTPLHLAAQHGHLEIVKVLLKNGAKVNAVDWFGRTPLHLAAKMGHRKIVKVLLKHGANVKADDHNGRTPLHLAAWEGHLEIVKVLLKYGAKVNAQDKFGKTAFDISIENGNEKLAKILQKL",> 50%
4,"KRAS mut9 (designed binder, Net charge 14; Tested on phage) DLGKKLLEAARAGQNDKVRILMANGAKVNARDHTGFTPLHLAAQHGHRKIVKVLLKNGANVKAVDWFGRTPLHLAAKMGHRKIVEVLLKHGANVKADDHNGRTPLHLAAWEGHRKIVKVLLKYGADVNAQDKFGKTAFDISIENGNEKLAKILQKL",> 50%
5,"KRAS mut10 (designed binder, Net charge 15; Tested on phage) DLGKKLLEAARAGQNDKVRILMANGAKVNARDHTGFTPLHLAAQHGHRKIVKVLLKNGAKVNAVDWFGRTPLHLAAKMGHLEIVKVLLKHGANVKADDHNGRTPLHLAAWEGHRKIVKVLLKYGAKVNAQDKFGKTAFDISVENGNEKLAKILQKL",> 50%
6,"KRAS mut11 (designed binder, Net charge 16; Tested on phage) DLGKKLLEAARAGQNDKVRILMANGAKVNARDHTGFTPLHLAAQHGHRKIVKVLLKNGAKVNAVDWFGRTPLHLAAKMGHRKIVKVLLKHGADVNADDHNGRTPLHLAAWEGHRKIVKVLLKYGAKVNAQDKFGKTAFDISIENGNEKLAKILQKL",> 50%

# Target: T2, CD73
# Experiment: as above
row,Binder,% antigen binding activity retained (relative to parental)
1,"CD73 mut11 (designed binder, Net charge 11; Tested on phage) DLGKKLLEAARAGQNDKVRILMANGAKVNAADTWGRTPLHLAAYHGHLEIVKVLLKHGANVNAEDIHGFTPLHLAALWGHRKIVKVLLKNGAKVNAVDWYGHTPLHLAAIDGHRKIVKVLLKHGAKVNAQDKFGKTAFDISIENGNEKLAKILQKL",> 50%

# Target: T1, SUMO-L-Myc fusion protein (recombinant …)
# Experiment: as above
row,Binder,% antigen binding activity retained (relative to parental)
1,"LMYC mut8 (designed binder, Net charge 11; Tested on phage) DLGKKLLEAARAGQNDKVRILMANGAKVNAMDQYGFTPLHLAAWYGHRKIVKVLLKHGANVKAKDVHGFTPLHLAAWTGHLEIVKVLLKNGANVKARDNEGSTPLHLAALAGHLEIVKVLLKNGAKVNAQDKFGKTAFDISIENGNEKLAKILQKL",> 50%
2,"LMYC mut7 (designed binder, Tested on phage) DLGKKLLEAARAGQNDKVRILMANGANVKAMDQYGFTPLHLAAWYGHRKIVKVLLKHGANVKAKDVHGFTPLHLAAWTGHLEIVEVLLKNGADVNARDNEGSTPLHLAALAGHRKIVKVLLKNGAKVNAQDKFGKTAFDISIENGNEKLAKILQKL",> 50%
3,"LMYC mut9 (designed binder, Net charge 11; Tested on phage) DLGKKLLEAARAGQNDKVRILMANGAKVNAMDQYGFTPLHLAAWYGHRKIVKVLLKHGANVKAKDVHGFTPLHLAAWTGHLEIVKVLLKNGAKVNARDNEGSTPLHLAALAGHLEIVKVLLKNGAKVNAQDKFGKTAFDISIENGNEKLAKILQKL",> 50%
4,"LMYC mut11 (designed binder, Net charge 12; Tested on phage) DLGKKLLEAARAGQNDKVRILMANGADVNAMDQYGFTPLHLAAWYGHRKIVKVLLKHGANVKAKDVHGFTPLHLAAWTGHRKIVKVLLKNGANVKARDNEGSTPLHLAALAGHLEIVKVLLKNGAKVNAQDKFGKTAFDISIENGNEKLAKILQKL",> 50%
